# According to patent US20190330331A1 (BLOOM DIAGNOSTICS, published 2019):
# T1: recombinant yeast-expressed His-tagged full-length AMH comprising amino acids 26-560 of human AMH (human, UniProt P03971 26-560)
# T1 construct: Bought protein (Antikörper Online, ABIN2524475); also called recombinant AMH; human Anti-Müllerian hormone
# T1 sequence: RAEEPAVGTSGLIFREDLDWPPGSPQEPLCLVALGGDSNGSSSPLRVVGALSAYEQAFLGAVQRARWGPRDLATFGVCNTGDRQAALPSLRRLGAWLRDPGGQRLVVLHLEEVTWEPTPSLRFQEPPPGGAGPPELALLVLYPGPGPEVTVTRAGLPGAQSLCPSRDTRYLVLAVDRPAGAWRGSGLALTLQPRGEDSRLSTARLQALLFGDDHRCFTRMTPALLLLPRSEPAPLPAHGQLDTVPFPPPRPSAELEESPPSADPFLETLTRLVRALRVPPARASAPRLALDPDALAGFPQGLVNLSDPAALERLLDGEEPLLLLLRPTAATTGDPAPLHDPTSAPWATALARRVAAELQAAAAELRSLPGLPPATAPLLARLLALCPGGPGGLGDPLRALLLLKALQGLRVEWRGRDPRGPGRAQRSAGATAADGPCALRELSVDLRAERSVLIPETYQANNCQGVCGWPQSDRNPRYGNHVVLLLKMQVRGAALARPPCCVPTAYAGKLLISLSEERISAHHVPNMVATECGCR
# B1: G170-FC5 (antibody, V domains shown)
# VH: EVKLVESGGGLVKPGGSLKLSCAASGFIFSTYTMSWVRQTPGKRLEWVATISSGGSYTYYPDSVKGRFTISRDNAKNTLYLQMSSLRSEDTAMYYCTRHGSDYRYDGFDYWGQGTTLTVSS
# VL: DILMTQSPASLSVSVGETVTITCRASENIYSNLAWYQQKQGKSPQLLVYAATNLADGVPSRFSGSGSGTQYSLKINSLQSEDFGSYYCQHFWGTPFTFGSGTKLEIK
# notes: kappa primers were used for the VL; also called anti-AMH G170-FC5; anti-AMH antibody
# Target: T1, recombinant yeast-expressed His-tagged …
# Assay: SPR (Biacore T200), AMH amine-coupled to the chip, antibody as analyte, bivalent-analyte model
# Method: Surface-plasmon-resonance (SPR) measurements were performed using a Biacore T200 facility, control software version 2.0, and Series S sensor-chips carboxymethyl dextran chip type 5 (CMS, GE Healthcare Bio-Sciences AB, Uppsala, Sweden). The system was operating at 25° C. in running buffer HBSP (10 mmol/L 4-(2-hydroxyethyl)piperazine-1-ethanesulfonic acid (Hepes), 150 mmol/L NaCl., 0.05% Tween 20, pH 7.4). AMH was transferred to 10 mmol/L sodium acetate buffer pH 4.0 by passing it through a NAPS column (GE Healthcare) before immobilization by amine coupling (Biacore Sensor Surface Handbook). The carboxyl groups on the chip were activated with an mixture containing 200 mM 1-ethyl-3-(3-dimethylaminopropyl)-carbodiimide hydrochloride (EDC, Sigma-Aldrich) and 50 mM N hydroxysuccinimide (NHS, Fluka) for 180 s. AMH was then injected for 150 s at a concentration of 2.5 μg/mL in, at a flow of 10 μL/min and […]. Approximately 100 resonance units (RU) of AMH were covalently bound to the flow cell. Unreacted NHS esters were blocked with 1 mol/L ethanolamine pH 8.5 for 7 min. […] Association and dissociation rates and the binding constants of the antibodies were determined using the bivalent-analyte-binding model of the Biacore evaluation software (version 2.0). […]
binder,measurement,value
B1,Kd,~1 nM
